# Test results reported in patent US20180318440A1 (US Dept. of Health and Human Services, published 2018).
# T1: human FGFR4 extracellular domain (FGFR4-ECD) (human, UniProt P22455 22-369)
# T1 construct: extracellular domain; also called hFGFR4-ECD
# T1 sequence (looked up): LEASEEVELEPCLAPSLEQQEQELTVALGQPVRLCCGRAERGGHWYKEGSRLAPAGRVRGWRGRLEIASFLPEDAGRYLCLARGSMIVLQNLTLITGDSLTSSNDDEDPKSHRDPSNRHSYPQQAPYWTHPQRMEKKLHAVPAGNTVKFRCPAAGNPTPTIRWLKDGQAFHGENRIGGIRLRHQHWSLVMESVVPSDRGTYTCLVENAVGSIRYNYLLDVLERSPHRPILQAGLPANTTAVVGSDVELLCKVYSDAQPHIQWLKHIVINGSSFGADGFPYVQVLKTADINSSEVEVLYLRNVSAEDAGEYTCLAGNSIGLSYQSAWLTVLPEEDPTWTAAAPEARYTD
# Tests used:
# [1] = biological target: T1, human FGFR4 extracellular domain …; experiment: SPR (BIACORE), mAb immobilized on the chip, FGFR4-ECD in solution
# Protocol: (§1) The affinity of two of the FGFR4-specific mAbs was tested using surface plasmon resonance.
# (§2) The mAb was immobilized in a CMS chip and the binding of FGFR4 extracellular domain (FGFR4-ECD) was detected by measuring surface plasmon resonance in a BIACORE™ instrument
# [2] = biological target: T1, human FGFR4 extracellular domain …; experiment: SPR (BIACORE), mAb immobilized on the chip, FGFR4-ECD in solution; 'Observed KD'
# Protocol: as §1, §2
# [3] = biological target: T1, human FGFR4 extracellular domain …; experiment: SPR (BIACORE), mAb immobilized on the chip, FGFR4-ECD in solution; column head prints 10^4, read as 10^-4 because that agrees with the printed kon and KD
# Protocol: as §1, §2
kon [1] [M⁻¹ s⁻¹],Kd [2] [nM],koff [3] [s⁻¹],Binder
25000,17,0.00043,"29.2 rabbit anti-FGFR4 mAb (antibody, V domains shown) VH: QSVKESEGRLVTPGTPLTLTCTVSGFSLSSNSVGWVRQAPGKGLEWIGIISSSGNRYYASWAKGRFTISKTSTTVDLKITSPTTEDTATYFCGGDPVSWYGDIWGPGTLVTVSS VL: ELVLTQTPSSVSAAVGGTVTINCQSSPSLYKNNYLSWYQQKPGQPPKLLIYSASTLASGVPSRFKGSGSGTEYTLTISGVQCDDAATYYCLGGYSLSSDSPRAFGGGTEVVVK"
1700,110,0.00018,"57.1 rabbit anti-FGFR4 mAb (antibody, V domains shown) VH: QSVKESEGRLVTPGTPLTLTCTVSGFSLSTYAMSWVRQAPEKGLEWIGIIYATAETYYATWARGRFTISKTSTTVDLKITSPATEDTATYFCARLNGDGSGTYAYDIWGPGTLVTVSS VL: ELVMTQTPSPVSAAVGGTVTINCQASQSISSSYLSWYQQKPGQPPKLLIYKASTRPSGVSSRFKGSGSGTQFTLTISGVQCADAATYYCLYGYYIDSGADNSFGGGTEVVVK"
